Data as given in paper PMC2189183.
Read-outs that look alike come from different tables or passages of the source.

How the values were obtained:
Assay in all cases: conjugate formation
[1] = target: HLA class I antigens of JY cells (human (endogenous in JY)) (UniProt P04439)
[2] = target: HLA class I antigens of JY cells (human (endogenous in JY)) (UniProt P04439); remark: listed apart in the source
[3] = target: HLA class I antigens of JY cells (human (endogenous in JY)) (UniProt P04439); remark: listed apart in the source

Sequence of UniProt P04439 (P04439 whole entry, looked up): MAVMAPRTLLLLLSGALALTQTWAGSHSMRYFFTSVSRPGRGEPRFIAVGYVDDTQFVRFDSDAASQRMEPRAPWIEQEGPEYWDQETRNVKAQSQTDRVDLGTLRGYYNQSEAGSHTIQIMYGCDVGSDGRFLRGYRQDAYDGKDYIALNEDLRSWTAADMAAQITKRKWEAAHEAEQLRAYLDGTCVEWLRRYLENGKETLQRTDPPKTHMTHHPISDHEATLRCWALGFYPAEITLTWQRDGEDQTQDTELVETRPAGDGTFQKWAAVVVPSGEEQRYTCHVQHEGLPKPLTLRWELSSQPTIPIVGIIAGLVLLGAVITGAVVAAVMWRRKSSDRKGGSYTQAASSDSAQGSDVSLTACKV

percent conjugates [1]: 22%
percent conjugates [2]: 42%
percent conjugates [3]: 29%
Substance: CD8 (human CD8 expressed in the murine T cell hybridoma 16.T8-15) (from UniProt P01732 22-235) (receptor)
